Earlier results on 1 substance are cited in publication PMC2678197 (Chemistry & biology, 2009).

In the data set the target is eotaxin (Homo sapiens, UniProt P51671). As to conditions: read-out: equilibrium dissociation constant (Kd); binding to eotaxin; ref [26].
Sequence of eotaxin (P51671 24-97): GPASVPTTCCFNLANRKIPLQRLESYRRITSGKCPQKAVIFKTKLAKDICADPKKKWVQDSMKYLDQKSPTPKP

For the substance “35-residue non-sulfated peptide: 35-residue non-sulfated peptide corresponding to the complete N-terminal region of CCR3 (MTTSLDTVETFGTTSYYDDVGLLCEKADTRALMAQ; unsulfated; the limits 1-35 are inferred from '35-residue' and 'complete N-terminal region')”, the Kd is 80 ± 38 µM.

As a reminder, the Kd is a measure of binding affinity in units of concentration.
